Results taken from the supplement of paper PMC10567573.
± gives the standard deviation.

Experiment: protein stability index of a GFP-peptide fusion (GPS, HEK-293T) (PSI 1-6); higher = more stable
[1] = treatment: DMSO, c terminus: a fixed tail appended
[2] = treatment: MLN4924 1 uM, 8 h, c terminus: a fixed tail appended
[3] = treatment: DMSO, c terminus: native
[4] = treatment: MLN4924 1 uM, 8 h, c terminus: native
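Also: 24-mer peptide tiles fused after GFP, lentivirally expressed, FACS-sorted into six equal bins by GFP/DsRed ratio, decoded by Illumina sequencing, PSI is the read-weighted mean bin number.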

VLRAGDREDITEPAICALRHLTSR [CTNNB1]
protein stability index [1]: 3.39 ± 0.39
protein stability index [2]: 3.67 ± 0.18

WVLSIDGENAGSLTHIEAQNKIRA [PDLIM7]
protein stability index [1]: 3.02 ± 0.33
protein stability index [2]: 3.28 ± 0.29

QAQIDQYLGLVRTHINAVVAKIQA [RTN1]
protein stability index [1]: 2.08 ± 0.35
protein stability index [2]: 2.35 ± 0.28

HYICTLKQPHLLLEKYSYYLISG [PNLIPRP1]
protein stability index [3]: 3.31 ± 0.66
protein stability index [4]: 3.39 ± 0.14

MENQVLTPHVYWAQRHRELYLRVE [HACD3]
protein stability index [1]: 2.4 ± 0.31
protein stability index [2]: 2.35 ± 0.27

LQNQNFPYPVLFHNIFLLGGSSTS [NLN]
protein stability index [1]: 2.15 ± 0.92
protein stability index [2]: 2.33 ± 0.4

LDPMKNVTCENGLPAVVSCVPGQV [LOXL2]
protein stability index [2]: 4.36 ± 0.06

RRDAEEWFHAKSAELNKEVSTNTA [KRT13]
protein stability index [1]: 4.71 ± 0.25
protein stability index [2]: 4.79 ± 0.1

PSGEEEAKVGPGLPDGCQPLQLLR [CBY2]
protein stability index [1]: 4.75 ± 0.22
protein stability index [2]: 4.79 ± 0.27

NLRAAGAEALGKLLQQNKSIQSLT [LRRC45]
protein stability index [1]: 3.26 ± 0.19
protein stability index [2]: 3.33 ± 0.19

RLAQPSSPEVLTPQLSPGSGTPQA [RTN2]
protein stability index [1]: 5.12 ± 0.12
protein stability index [2]: 4.96 ± 0.2

GATALHFAAEAGHIDIVKELIKWR [FEM1B]
protein stability index [1]: 2.39 ± 0.35
protein stability index [2]: 2.43 ± 0.33

QNLCKGLSQPTTNLVAGCLQLNAR [NEUROD6]
protein stability index [1]: 2.97 ± 0.2
protein stability index [2]: 3.15 ± 0.23

TPETRAKFTQDNLCRAQRERLASA [TEKT4]
protein stability index [1]: 4.17 ± 0.23
protein stability index [2]: 4.35 ± 0.35

LSAANVCLDPIIYFFLCQPFREIL [P2RY14]
protein stability index [1]: 3.28 ± 0.74
protein stability index [2]: 2.58 ± 0.77

QETAKEEDGSVELESQVQKDGVAD [C18orf25]
protein stability index [1]: 5.55 ± 0.24
protein stability index [2]: 5.61 ± 0.34

TVETCRALGKLLPRETLCTELVLS [LRRC45]
protein stability index [1]: 2.67 ± 0.25
protein stability index [2]: 2.55 ± 0.13

ADFGLARIYSYQMALTPVVVTLWY [CDK4]
protein stability index [1]: 3.52 ± 0.99
protein stability index [2]: 2.78 ± 0.81

LPPVSTSFTTGGLRIPFPRDCGEE [TNXB]
protein stability index [1]: 4.62 ± 0.27
protein stability index [2]: 4.43 ± 0.18

KAAEGGLSSPEFSELCIWLGSQIK [FAM98B]
protein stability index [1]: 2.08 ± 0.12
protein stability index [2]: 2.03 ± 0.4

SSAPRDVQARMLSSTTILVQWKEP [PTPRD]
protein stability index [1]: 2.83 ± 0.47
protein stability index [2]: 2.79 ± 0.15

ADVLLQAGADLEHESEGGRTPLMK [ANKRD17]
protein stability index [1]: 5.17 ± 0.34
protein stability index [2]: 5.29 ± 0.15

LISNASDALDKIRYESLTDPSKLD [HSP90AB1]
protein stability index [1]: 3.75 ± 0.34
protein stability index [2]: 3.85 ± 0.41

GVLVEDSNNHHLMLEASEWATIEG [ZBED1]
protein stability index [1]: 4.2 ± 0.33
protein stability index [2]: 4.6 ± 0.32

LRPTSVDPALRRRRRGPRNKKRGW [NOP53]
protein stability index [1]: 4.64 ± 0.56
protein stability index [2]: 4.29 ± 0.23

HGRHIDCPATWGPSVEQAADSLDF [FOXJ1]
protein stability index [1]: 4.31 ± 0.22
protein stability index [2]: 4.58 ± 0.11

SQSPSVSQLSVLSLSGVMLTDVSP [PRAME]
protein stability index [1]: 3 ± 0.49
protein stability index [2]: 3 ± 0.33

LVKQECIKEVVEKREACHCEEVKM [FAN1]
protein stability index [1]: 4.54 ± 0.4
protein stability index [2]: 4.7 ± 0.23

ALQPSPSIRLPLDAPLPGSKAKPK [TBC1D10A]
protein stability index [1]: 4.19 ± 0.21
protein stability index [2]: 4.32 ± 0.34

YLNEYEAEKIEYNESMKAYHNSPA [SMARCE1]
protein stability index [1]: 3.95 ± 0.4
protein stability index [2]: 3.98 ± 0.31

AQVPPAAPHHHHHHSHSGPEISRI [PLK2]
protein stability index [1]: 4.09 ± 0.073
protein stability index [2]: 4.1 ± 0.13

IAYYSYIYSVVDLGMYQKVTSYCR [SLC19A2]
protein stability index [1]: 3.28 ± 0.38
protein stability index [2]: 2.62 ± 0.071

EERILHQQVKCIITEEKVCMVCKK [VPS39]
protein stability index [1]: 4.21 ± 0.33
protein stability index [2]: 4.39 ± 0.29

SGLIEIQSYPLCIYLINQKWFGRK [SLC22A15]
protein stability index [1]: 2.47 ± 0.59
protein stability index [2]: 2.19 ± 0.2

KLHDFFSYLMDHFIPSSHNDRDFL [PPEF2]
protein stability index [1]: 2.46 ± 0.51
protein stability index [2]: 2.53 ± 0.64

SASECMQDFNTMFTNCYIYNKPTD [BRD3]
protein stability index [1]: 3.1 ± 0.23
protein stability index [2]: 3.08 ± 0.45

LAEARRLFPGRVSVDLMLGLPAQQ [RSAD1]
protein stability index [1]: 2.76 ± 0.25
protein stability index [2]: 2.7 ± 0.31

DNLRKVVPCYSKTQKLSKIETLRL [NEUROD6]
protein stability index [1]: 2.81 ± 0.17
protein stability index [2]: 2.8 ± 0.32

LSALLRATPGEYSVNICGMNEHPV [SPAG8]
protein stability index [1]: 2.27 ± 0.27
protein stability index [2]: 2.42 ± 0.16

YGETDFHKQDGKAGLFSQEQYERN [TMEM40]
protein stability index [1]: 4.18 ± 0.16
protein stability index [2]: 4.72 ± 0.56

WEAKQEKIKSEEIEITFSYWDGSG [FAM50A]
protein stability index [1]: 2.59 ± 0.3
protein stability index [2]: 2.6 ± 0.35

NPFFAKTLQHWPHIIRIGDLKPTG [DENND6A]
protein stability index [1]: 2.21 ± 0.34
protein stability index [2]: 2.07 ± 0.23

KVPNHYIAIPEWFLSENATVAAET [CPXM2]
protein stability index [1]: 3.22 ± 0.43
protein stability index [2]: 3.32 ± 0.47

GTRYSAPANLYVRELREVRRVPPR [PTPRD]
protein stability index [1]: 4.23 ± 0.23
protein stability index [2]: 3.9 ± 0.12

KVLLSGATFLVTFGNSEKPETMTC [ZFYVE21]
protein stability index [1]: 2.43 ± 0.27
protein stability index [2]: 2.23 ± 0.72

KADENNGFGSKNTAFCTHVFPETA [TBX5]
protein stability index [1]: 4.01 ± 0.47
protein stability index [2]: 3.86 ± 0.2

VKSVSPQGNSVDRMAAPRAEALFD [NCF4]
protein stability index [1]: 4.35 ± 0.14
protein stability index [2]: 4.71 ± 0.14

GATVGRKSRRSRSESETSTMAAKK [C18orf25]
protein stability index [1]: 5.23 ± 0.31
protein stability index [2]: 5.48 ± 0.27

MSEWSECTAKCGERSVVTRDIRCS [ADAMTSL2]
protein stability index [1]: 3.87 ± 0.45
protein stability index [2]: 3.74 ± 0.051

AEDHLDGCCKRRYLQKIEEFAEMV [KCNG1]
protein stability index [1]: 3.06 ± 0.14
protein stability index [2]: 2.96 ± 0.1

KYEKLRGDVAIKLKFLEENKIKVM [ARFIP2]
protein stability index [1]: 2.22 ± 0.37
protein stability index [2]: 2.48 ± 0.27

MEIATYRKLLESEECRMSGEFPSP [KRT71]
protein stability index [1]: 3.91 ± 0.53
protein stability index [2]: 4.07 ± 0.36

MRAPMLQKQQAPRMDTPPPEERLE [CCDC89]
protein stability index [1]: 5.21 ± 0.24
protein stability index [2]: 5.29 ± 0.29

SFLKQKEQLEAEAQALRQELERQR [PBXIP1]
protein stability index [1]: 4.43 ± 0.39
protein stability index [2]: 4.52 ± 0.088

DGAGRTWQDSDTVKLLVDLELSYG [TOR1AIP2]
protein stability index [1]: 2.37 ± 0.48
protein stability index [2]: 2.79 ± 0.43

QRSHMGKLKEPQPQDHKPGLGAS
protein stability index [3]: 3.13 ± 0.88
protein stability index [4]: 3.63 ± 0.56

EKEFMKGNQLISNNIKFKKSSILT [CLCN6]
protein stability index [1]: 3.46 ± 0.17
protein stability index [2]: 3.48 ± 0.38

ESGEHFRSLLGYDPQILQMLKEEH [RAD54B]
protein stability index [1]: 3.77 ± 0.35
protein stability index [2]: 3.56 ± 0.55

PLEGSAKGKVQAELSQPLTAGGAI [RBBP5]
protein stability index [1]: 4.88 ± 0.19
protein stability index [2]: 4.72 ± 0.35

REGDCAPEEKIWEELSVLEVFEGR [MAGEA3]
protein stability index [1]: 5.08 ± 0.22
protein stability index [2]: 5.14 ± 0.11

ARKLTAQRRASTVSSVTQVEVDEN [NET1]
protein stability index [1]: 5.15 ± 0.39
protein stability index [2]: 5.14 ± 0.33

KENIEKDEDDVDQELANIDPTWIE [SRPK2]
protein stability index [1]: 5.56 ± 0.28
protein stability index [2]: 5.53 ± 0.2

ASKKTAQPWVEVVLALRNMKNLLF [MFSD9]
protein stability index [1]: 2.75 ± 0.73
protein stability index [2]: 2.57 ± 0.39

TPGGRGDMKYGIYAVENEHMNRLQ [VTI1B]
protein stability index [1]: 3.69 ± 0.33
protein stability index [2]: 3.55 ± 0.63

KDPYGKPVDLWACGVILYILLVGY [CAMK2A]
protein stability index [1]: 3.16 ± 0.97
protein stability index [2]: 3.07 ± 0.32

RNGLHLPEQVQNEIKSMKKRMSEL [NLN]
protein stability index [1]: 4.11 ± 0.33
protein stability index [2]: 4.4 ± 0.31

CKCGECTAPRTLPSCLACNRQCLC [SPRY1]
protein stability index [1]: 4.05 ± 0.2
protein stability index [2]: 4.04 ± 0.14

YVHDPECVATTGDITVSVSTSFLP [FBXO3]
protein stability index [1]: 2.46 ± 0.26
protein stability index [2]: 2.95 ± 0.15

KTERINALELLGATFVDKKRDLLG [FEM1C]
protein stability index [1]: 3.23 ± 0.1
protein stability index [2]: 3.4 ± 0.22

KIGNSAFARYPNGVVVHYFCSKEV [VPS39]
protein stability index [1]: 2.41 ± 0.48
protein stability index [2]: 2.33 ± 0.32

LPVASSSTLLPLAPSNSTSLNSTF [NFE2L1]
protein stability index [1]: 3.89 ± 0.11
protein stability index [2]: 3.65 ± 0.24

TAPRQEKHERTHEIIPINVNNNYE [SPRY1]
protein stability index [1]: 4.68 ± 0.15
protein stability index [2]: 4.61 ± 0.38

AIDQYRVCQEVLERSRDVVDEVSV [RHOBTB1]
protein stability index [1]: 4.61 ± 0.21
protein stability index [2]: 4.32 ± 0.15

TFAGDTCQVALNFANEEEAKKFRK [WASL]
protein stability index [1]: 4.75 ± 0.12
protein stability index [2]: 4.73 ± 0.32

GCILFEYYRGFTLFQTHENREHLV [CLK3]
protein stability index [1]: 2.97 ± 0.85
protein stability index [2]: 2.21 ± 0.69

DGPCHKRRASICCTQLGSLSALKH [SCARA5]
protein stability index [1]: 3.79 ± 0.11
protein stability index [2]: 3.65 ± 0.076

LDNTKFRSHEGETAYIRVKVDGPR [SRSF1]
protein stability index [1]: 3.73 ± 0.34
protein stability index [2]: 3.49 ± 0.32

HGIELHSDVVEYAKEKLESFIKNS [PCMTD1]
protein stability index [1]: 3.95 ± 0.35
protein stability index [2]: 4.04 ± 0.15

KRDDYLEWPEYFMAVAFLSAQRSK [DCTD]
protein stability index [1]: 2.27 ± 0.19
protein stability index [2]: 2.12 ± 0.35

VELLHNTSYTRQACLVSCFQQLMV [SCNN1D]
protein stability index [1]: 2.39 ± 0.78
protein stability index [2]: 2.5 ± 0.94

LEIELQSQLSMKAGLENTVAETEC [KRT13]
protein stability index [1]: 5.02 ± 0.43
protein stability index [2]: 5.03 ± 0.11

AAAHWYGGAEMRTQHWPIRLDGQQ [MYORG]
protein stability index [1]: 2.86 ± 0.15
protein stability index [2]: 2.79 ± 0.14

SFEHRVRGVRRTASTPTPDDKLFQ [CPN1]
protein stability index [1]: 4.3 ± 0.31
protein stability index [2]: 4.37 ± 0.3

LKLANHQRPVSRQVTCLRTQVLED [TRAF3IP2]
protein stability index [1]: 3.49 ± 0.35
protein stability index [2]: 3.58 ± 0.27

SEHVLKKAHKYSELIILYEKKGLH [VPS39]
protein stability index [1]: 2.08 ± 0.23
protein stability index [2]: 2.27 ± 0.34

PPSVLISKNEVGIFTTPNFDETSS [KMT2E]
protein stability index [1]: 4.09 ± 0.12
protein stability index [2]: 4.33 ± 0.069

DNSLSSQNYISQKEDASEFQILKY [MIA2]
protein stability index [1]: 3.94 ± 0.27
protein stability index [2]: 3.74 ± 0.6

LLKIHEVSTVSHADADCFVCVFLS [CASP6]
protein stability index [1]: 2.4 ± 0.17
protein stability index [2]: 2.4 ± 0.41

RHVAPIPSHYDVQDRFRIELSEEG [MOSPD3]
protein stability index [1]: 4.34 ± 0.4
protein stability index [2]: 4.69 ± 0.21
